This experiment addresses T1, PPE19-GST-bio (biotinylated PPE19 with an N-terminal GST tag) (Mycobacterium tuberculosis H37Rv, UniProt P9WI25 1-396).
T1 construct: also called biotinylated PPE19-GST; not shown: GST, N-terminal, kept
T1 sequence: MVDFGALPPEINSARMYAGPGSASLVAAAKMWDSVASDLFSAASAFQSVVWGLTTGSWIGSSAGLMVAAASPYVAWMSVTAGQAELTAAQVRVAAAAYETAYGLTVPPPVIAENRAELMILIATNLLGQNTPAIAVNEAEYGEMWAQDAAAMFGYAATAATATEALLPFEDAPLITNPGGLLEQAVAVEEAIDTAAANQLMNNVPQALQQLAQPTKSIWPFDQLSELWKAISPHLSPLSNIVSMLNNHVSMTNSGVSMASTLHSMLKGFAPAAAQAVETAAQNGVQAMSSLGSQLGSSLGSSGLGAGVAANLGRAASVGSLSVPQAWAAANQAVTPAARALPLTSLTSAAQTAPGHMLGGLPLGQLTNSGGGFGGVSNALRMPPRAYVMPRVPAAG
In words: AlphaScreen or HTRF. The conditions noted are these: both partners purified. A general note: In Alpha technology, singlet oxygen from a donor bead excites a nearby acceptor bead.

This note sets out measurements from paper PMC12482190, “Characterization of PPE19 as a novel mediator of Mycobacterium tuberculosis-macrophage interactions” (mSphere, 2025).

B1: PE13-His (PE13 with a polyhistidine affinity tag) (natural protein)
chain: MSFVMAYPEMLAAAADTLQSIGATTVASNAAAAAPTTGVVPPAADEVSALTAAHFAAHAAMYQSVSARAAAIHDQFVATLASSASSYAATEVANAAAAS
Regarding B1, the binding result is “binds”.
